Reference: patent US20230210903A1, “HYPOXIA-RESISTANT NATURAL KILLER CELLS” (ONK THERAPEUTICS LIMITED, priority 2020, published 2023)

How the values were obtained:
decoy receptor DcR1 = target: T1, decoy receptor DcR1 (Homo sapiens, UniProt O14798); details: surface plasmon resonance; WO 2009/077857; cited from earlier work
T1 sequence (O14798 26-236): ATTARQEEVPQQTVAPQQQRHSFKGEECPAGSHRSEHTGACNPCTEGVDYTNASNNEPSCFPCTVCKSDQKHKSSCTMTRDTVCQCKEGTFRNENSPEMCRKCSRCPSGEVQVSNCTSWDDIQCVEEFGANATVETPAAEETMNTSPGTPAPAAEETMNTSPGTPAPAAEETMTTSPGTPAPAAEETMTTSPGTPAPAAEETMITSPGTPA

DR4 = DR4 (Homo sapiens, UniProt O00220); details: surface plasmon resonance; WO 2009/077857; cited from earlier work
K562 cells = details: KHYG-1 pretreated with 10 μM for 6 h, then K562 at different E:T ratios for 4 h
Method: Statistical analysis showing the effects of ERK and STAT3 inhibition on NK cells cytotoxicity against K562 cells (n=3, * P<0.05, ** P<0.01). KHYG-1 cells were pretreated with 10 μM U0126 and 10 μM CPT for 6 h and then incubated with K562 at different E:T ratios for 4 h.
(e) Flow cytometric analysis of the effects of TPI-1 on the NK cell cytotoxicity. Left panel: representative flow cytometry results of TPI-1 on the cytotoxicity of KHYG-1 cells. KHYG-1 cells were pretreated with 5 μM TPI-1 for 2 h, and then incubated with K562 cells at different E:T ratios for 4 h. Right panel: statistical analysis of the effects of TPI-1 on KHYG-1 cell cytotoxicity against K562 cells (n=3, * P<0.05).
(b) Statistical analysis of the effects of knocking down SHP-1 on NK cells cytotoxicity against K562 cells (n=3, * P<0.05). […]
Prior to the assay, NK cells and tumour cells were individually pre-incubated for 24 h at 5% CO2 with 20% or 1% 02 first. […] After the 4 h incubation, samples were harvested and washed followed by a combinational staining with CD2-APC, Annexin V-FITC as well as Sytox Green, in which CD2 was used to distinguish effector from target cells, and target cell death was detected with Annexin V-FITC and Sytox Green. A minimum of 10,000 target events were collected per sample, and the results were analyzed using Flowjo v7.6.2.

KHYG-1 cells = assay: Flow cytometry of activating receptors on NK cell surface, KHYG-1; type: cell-based; details: 10 μM inhibitor for 24 h
Method: (§1) Hypoxia diminishes the phosphorylation level of ERK and STAT3.
(§2) The expression of NK cell cytotoxicity effector molecules and activating receptors was analyzed by flow cytometry. For membrane staining, 5×10^5 cells were collected and washed with staining buffer (PBS containing 0.1% NaN3 and 0.1% BSA) three times. The cells were then incubated for 30 min on ice, according to the instructions provided with the respective antibodies. After washing 3 times with cell stain buffer, the cells were resuspended in 300 μL staining buffer in the presence of Sytox Green or 7-AAD, which were used to gate out dead cells. Acquisition of 10,000 cells per reaction was performed using a CytoFLEX Cytometer (Beckman Coulter Life Sciences). Data were analyzed with Flowjo v7.6.2 (Tree Star). For intracellular staining, 5×10^5 cells were collected and fixed with 1 mL 1% paraformaldehyde in PBS for 15 minutes at room temperature. After washing 3 times with cell stain buffer, the fixed cells were then resuspended in 2 mL permeabilization buffer (0.1% saponin in cell staining buffer) and incubated for 30 min at room temperature. The cells were collected again by centrifugation, stained with the antibody at an optimal working concentration in permeabilization buffer for 15 min on ice. […]

NK-92 cells = assay: Flow cytometry of activating receptors on NK cell surface, NK-92; type: cell-based; details: 10 μM inhibitor for 24 h
Method: as §1, §2

[1] = test system: phosphorylation of ERK and STAT3; assay: Western blotting of ERK and STAT3 phosphorylation in hypoxic KHYG-1 cells; type: cell-based; details: hypoxic KHYG-1 cells pre-treated with 5 μM for 2 h
Method: Hypoxic KYHG-1 cells were pre-treated with 5 μM TPI-1 for 2 h, and then the cells were collected for western blotting analysis.
For western blotting, treated and untreated KHYG-1 and NK92 cells were lysed in buffer containing 50 mM Tris, 150 mM NaCl, 1% Triton X-100, 1% sodium deoxycholate, 0.1% SDS and protease inhibitors on ice for 30 min. Lysates were centrifuged at 12,000 rpm for 15 min, and supernatants were collected. Protein concentration was determined by the BCA protein assay kit (HEART Biotech, #WB003). Equal amounts of protein were loaded and separated on sodium dodecyl sulfate-polyacrylamide gel electrophoresis gel, and transferred onto a PVDF membrane (Millipore, #IPVH00010). After blocking for 1 h with 5% non-fat milk in PBS with 0.1% Tween-20 at room temperature, the membrane was incubated with primary antibody at 4° C. overnight. Immunoblots were visualized using HRP-conjugated secondary antibodies and the ECL Western Blot Detection kit (Phygene Life Sciences, #PH0353).

DcR1 = target: T2, DcR1 (Homo sapiens, UniProt O14798); details: compared with wildtype TRAIL; cited from earlier work
T2 sequence (O14798 26-236): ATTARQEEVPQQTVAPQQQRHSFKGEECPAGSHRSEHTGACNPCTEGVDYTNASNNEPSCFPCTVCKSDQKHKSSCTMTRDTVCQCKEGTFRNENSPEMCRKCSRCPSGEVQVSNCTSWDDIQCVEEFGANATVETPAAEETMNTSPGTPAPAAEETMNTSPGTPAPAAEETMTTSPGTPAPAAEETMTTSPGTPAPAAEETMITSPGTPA

DcR2 = target: T3, DcR2 (Homo sapiens, UniProt Q9UBN6); details: compared with wildtype TRAIL; cited from earlier work
T3 sequence (Q9UBN6 56-386): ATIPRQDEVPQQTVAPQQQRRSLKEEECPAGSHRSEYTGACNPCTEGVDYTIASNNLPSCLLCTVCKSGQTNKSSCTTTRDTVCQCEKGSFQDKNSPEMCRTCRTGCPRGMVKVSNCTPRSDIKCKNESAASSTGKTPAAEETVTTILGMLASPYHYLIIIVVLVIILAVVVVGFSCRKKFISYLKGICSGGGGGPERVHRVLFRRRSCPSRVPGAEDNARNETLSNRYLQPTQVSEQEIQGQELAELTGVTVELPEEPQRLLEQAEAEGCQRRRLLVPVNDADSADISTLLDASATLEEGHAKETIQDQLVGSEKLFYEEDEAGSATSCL

DR5 = DR5 (Homo sapiens, UniProt O14763); details: compared with wildtype TRAIL; cited from earlier work

Wildtype TRAIL: wildtype TRAIL ligand
Kd (decoy receptor DcR1): > 20 nM
Kd (DR4): > 2 nM

C[C@H]1COC2=C1C(=O)C(=O)c1c2ccc2c1CCCC2(C)C [cryptotanshinone]
NK cell cytotoxicity against cancer cells (K562 cells): significantly impaired

N#CC(=C(/N)Sc1ccccc1N)/C(C#N)=C(\N)Sc1ccccc1N [U0126]
NK cell cytotoxicity against cancer cells (K562 cells): significantly impaired
expression of activating receptors NKp30, NKp46 and NKG2D (KHYG-1 cells): significantly reduced
expression of activating receptors NKp46 and NKG2D (NK-92 cells): significantly reduced

O=C1C=CC(=O)C(c2cc(Cl)ccc2Cl)=C1 [TPI-1]
phosphorylation of ERK and STAT3 [1]: reverse the decrease

B1: TRAIL variant: encoded by the wildtype TRAIL gene containing the D269H/E195R mutation, described in WO 2009/077857 (protein)
chain: MAMMEVQGGPSLGQTCVLIVIFTVLLQSLCVAVTYVYFTNELKQMQDKYSKSGIACFLKEDDSYWDPNDEESMNSPCWQVKWQLRQLVRKMILRTSEETISTVQEKQQNISPLVRERGPQRVAAHITGTRGRSNTLSSPNSKNEKALGRKINSWESSRSGHSFLSNLHLRNGELVIHEKGFYYIYSQTYFRFQERIKENTKNDKQMVQYIYKYTSYPDPILLMKSARNSCWSKDAEYGLYSIYQGGIFELKENDRIFVSVTNEHLIDMHHEASFFGAFLVG
affinity for decoy receptor DcR1 (DcR1): reducing
affinity for decoy receptor DcR2 (DcR2): reducing
affinity for DR5 (DR5): significantly increases
